Experimental data taken from patent publication US20120321697A1 (GWANGJU INSTITUTE OF SCIENCE AND TECHNOLOGY, published 2012).
No end group written: not given here. vector‑coded linker = not defined here

Experiments:
[1] = target: T1, Fibronectin ED-B protein (recombinant, N-terminal His-tag, biotinylated where captured on streptavidin) (human, UniProt P02751 1266-1356, biotin by sulfo-NHS-SS-biotin (for biopanning, input phage ELISA and SPR on SA chip)); assay: phage ELISA on 10 coated proteins, absorbance at 450 nm
T1 construct: domain: ED-B; Expressed in E. coli BL21 from pET28b; also called fibronectin extra domain B; biotinylated-EDB; not shown: N-terminal His-tag from pET28b
Description: Each protein (5 μg/ml) was seeded into wells (50 μl per well) in a 96-well ELISA plate and next day, all wells were washed with 0.1% PBST (Tween-20) three times, and blocked at room temperature for 2 hrs using 2% skim milk. Then, the solution was completely removed and the plate was washed with 0.1% PBST three times. Recombinant phages containing the peptide of the present invention were thoroughly mixed with 2% BSA. Each mixture (100 μl) was divided into wells coated with 10 proteins and kept to stand at 27° C. for 2 hrs. After washing with 0.1% PBST 5 times, HRP-conjugated anti-M13 antibodies (1:1,000 dilution; GE Healthcare) were added to each well and incubated at 27° C. for 1 hr. After washing with 0.1% PBST 5 times, 100 μl TMB was divided into each well to induce colorimetric reaction, followed by stopping the reaction adding 100 μl of 1 M HCl. The absorbance was measured at 450 nm.

TNFa = target: T2, TNFa; assay: phage ELISA (anti-M13-HRP, absorbance at 450 nm), proteins coated at 5 µg/ml
T2 construct: Control protein; also called TNF-α

[2] = target: T1, Fibronectin ED-B protein (recombinant, …); assay: as above
VEGF121 = target: T3, VEGF121 (human, UniProt P15692-9 27-147); assay: as above
T3 construct: Isoform VEGF121; also called vascular endothelial growth factor
T3 sequence (looked up): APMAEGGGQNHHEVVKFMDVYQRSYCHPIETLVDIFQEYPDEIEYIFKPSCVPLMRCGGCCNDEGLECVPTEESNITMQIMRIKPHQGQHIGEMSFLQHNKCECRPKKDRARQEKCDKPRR

BSA = BSA (UniProt P02769 25-607); assay: as above
Trx = target: T4, Trx; assay: as above
T4 construct: Control for the fusion partner; also called thioredoxin; not shown: The His-tag/S-tag linker tail of pET32a, if Trx was expressed from the empty vector

VCAM1-Trx [3] = target: T5, VCAM1-Trx (human, UniProt P19320 25-698); assay: SPR (Biacore), synthetic peptide; immobilisation of VCAM1 not described
T5 construct: the form used in SPR is not described; also called Trx-VCAM1; vascular cell adhesion molecule-1; not shown: Trx (thioredoxin) fusion partner and tags of pET32a
T5 sequence (looked up): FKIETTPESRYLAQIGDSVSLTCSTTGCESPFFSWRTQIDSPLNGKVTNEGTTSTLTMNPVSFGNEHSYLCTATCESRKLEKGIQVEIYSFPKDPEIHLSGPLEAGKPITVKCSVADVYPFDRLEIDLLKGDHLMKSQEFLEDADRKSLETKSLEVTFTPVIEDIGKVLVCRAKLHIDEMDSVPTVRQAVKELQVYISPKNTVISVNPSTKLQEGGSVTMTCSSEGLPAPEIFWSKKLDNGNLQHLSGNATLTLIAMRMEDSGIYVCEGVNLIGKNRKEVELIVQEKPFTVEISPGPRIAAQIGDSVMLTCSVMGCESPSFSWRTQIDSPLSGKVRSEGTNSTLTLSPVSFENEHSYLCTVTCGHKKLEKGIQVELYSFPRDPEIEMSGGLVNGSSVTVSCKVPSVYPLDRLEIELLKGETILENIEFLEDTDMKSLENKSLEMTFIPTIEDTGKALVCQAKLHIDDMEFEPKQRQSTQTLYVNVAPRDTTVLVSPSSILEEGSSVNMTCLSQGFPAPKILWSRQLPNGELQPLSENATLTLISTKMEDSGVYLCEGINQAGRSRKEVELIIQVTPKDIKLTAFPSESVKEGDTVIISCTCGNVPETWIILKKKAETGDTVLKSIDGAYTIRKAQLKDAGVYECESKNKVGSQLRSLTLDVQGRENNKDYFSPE

VCAM1-Trx [4] = target: T5, VCAM1-Trx; assay: SPR (Biacore)
[5] = target: T1, Fibronectin ED-B protein (recombinant, …); assay: SPR (Biacore X), biotin-EDB on streptavidin chip
Description: (§1) We tested using a SPR device whether the purified GST-BPB protein can bind to fibronectin EDB. […] PBS (pH 7.4) was used as a running buffer and the flow rate was 30 μ1/min. The kinetics was measured in various concentrations and then the affinity was calculated using BIAevaluation.
The affinity of the GST-BPB to fibronectin ED-B was measured using the SPR biacore system.

[6] = target: T1, Fibronectin ED-B protein (recombinant, …); assay: SPR (Biacore X), biotin-EDB on streptavidin chip up to 2000 RU
Description: as §1

T1 sequence (P02751 1266-1356): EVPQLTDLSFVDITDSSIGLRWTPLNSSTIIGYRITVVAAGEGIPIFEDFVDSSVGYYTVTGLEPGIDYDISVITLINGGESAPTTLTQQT
Chain of BSA (P02769 25-607 limits assumed): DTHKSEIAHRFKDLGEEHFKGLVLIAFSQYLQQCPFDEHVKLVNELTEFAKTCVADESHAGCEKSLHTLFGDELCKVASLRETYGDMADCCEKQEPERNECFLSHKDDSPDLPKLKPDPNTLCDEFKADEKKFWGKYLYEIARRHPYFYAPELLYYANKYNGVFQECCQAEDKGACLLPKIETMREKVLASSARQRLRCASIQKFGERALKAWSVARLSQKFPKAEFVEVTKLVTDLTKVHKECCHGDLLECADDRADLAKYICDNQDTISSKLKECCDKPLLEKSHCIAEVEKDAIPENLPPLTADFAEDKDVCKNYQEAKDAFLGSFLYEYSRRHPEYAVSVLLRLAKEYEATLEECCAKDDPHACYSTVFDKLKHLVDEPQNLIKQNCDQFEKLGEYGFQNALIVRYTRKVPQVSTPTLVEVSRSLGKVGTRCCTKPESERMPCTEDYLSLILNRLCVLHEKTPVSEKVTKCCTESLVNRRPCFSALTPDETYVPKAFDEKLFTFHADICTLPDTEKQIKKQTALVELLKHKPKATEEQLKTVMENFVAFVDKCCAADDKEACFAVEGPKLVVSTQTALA

B1: Peptide 2 specific to fibronectin ED-B (Table 3a) (peptide)
peptide: HCSSAVGSWTWENGKWTWKGIIRLEQ
notes: Synthetic peptide in SPR; also called tryptophan zipper
- fold absorbance against other proteins [1]: 30 fold

B2: Peptide 1 specific to VCAM1 (Table 3c) (peptide)
peptide: QARDCTGSWTWENGKWTWKGPSICPI
notes: Synthetic peptide in SPR; also called BPB
- binding result (TNFa): no binding
- binding result [2]: no binding
- binding result (VEGF121): no binding
- binding result (BSA): no binding
- binding result (Trx): no binding
- Kd (VCAM1-Trx [3]): 318 nM
- koff (VCAM1-Trx [4]): 0.1 s⁻¹
- kon (VCAM1-Trx [4]): 330000 M⁻¹ s⁻¹

B3: GST-BPB fusion protein for fibronectin EDB (other)
chain: {GST-vector‑coded linker}-HCSSAVGSWTWENGKWTWKGIIRLEQ
modifications: not fully specified; reading uncertain
notes: BPB insert cloned BamHI/XhoI into pGEX4T-1, expressed in E. coli BL21; The reverse primer GST-B1 may add a few residues after the BPB; not shown: glutathione S-transferase (GST) as coded by the pGEX4T-1 vector (GE Healthcare); vector-coded linker between GST and BPB
- koff [5]: 0.00347 s⁻¹
- kon [5]: 12200 M⁻¹ s⁻¹
- Kd [6]: 284 nM
